The target in this assay is T1, Spermine synthase (Homo sapiens, UniProt P52788).
T1 chain: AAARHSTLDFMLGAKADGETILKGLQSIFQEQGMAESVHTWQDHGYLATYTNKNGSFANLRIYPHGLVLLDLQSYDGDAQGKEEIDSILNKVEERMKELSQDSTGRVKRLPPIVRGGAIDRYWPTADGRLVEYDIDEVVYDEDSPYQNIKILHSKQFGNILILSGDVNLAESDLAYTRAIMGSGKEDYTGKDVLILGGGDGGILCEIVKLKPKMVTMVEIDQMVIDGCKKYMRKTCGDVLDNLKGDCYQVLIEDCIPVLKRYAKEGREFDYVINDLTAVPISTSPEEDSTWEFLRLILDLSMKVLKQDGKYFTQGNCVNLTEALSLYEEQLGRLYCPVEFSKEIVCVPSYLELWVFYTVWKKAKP
Put plainly: MST.

For orientation: Kd means a measure of binding affinity in units of concentration. Read a high Kd as lower affinity.

B1: Myosin Va GTD (protein)
chain: MENISPGQIIDEPIRPVNIPRKEKDFQGMLEYKKEDEQKLVKNLILELKPRGVAVNLIPGLPAYILFMCVRHADYLNDDQKVRSLLTSTINSIKKVLKKRGDDFETVSFWLSNTCRFLHCLKQYSGEEGFMKHNTSRQNEHCLTNFDLAEYRQVLSDLAIQIYQQLVRVLENILQPMIVSGMLEHETIQGVSGVKPTGLRKRTSSIADEGTYTLDSILRQLNSFHSVMCQHGMDPELIKQVVKQMFYIIGAITLNNLLLRKDMCSWSKGMQIRYNVSQLEEWLRDKNLMNSGAKETLEPLIQAAQLLQVKKKTDDDAEAICSMCNALTTAQIVKVLNLYTPVNEFEERVSVSFIRTIQMRLRDRKDSPQLLMDAKHIFPVTFPFNPSSLALETIQIPASLGLGFISRV
As for B1, the Kd was 3.5 µM.

(Values after paper PMC6488853 (2019).)
